Laboratory results reported in patent publication US20260209362A1 (VIB VZW, published 2026).
Changes are numbered by the printed parent chain.

T1: biotinylated recombinant human IL-12Rβ2 (human, UniProt Q99665 24-622, random biotinylated)
T1 construct: Recombinant protein produced in-house, biotinylated; also called hIL-12RB2; human IL-12RB2
T1 sequence: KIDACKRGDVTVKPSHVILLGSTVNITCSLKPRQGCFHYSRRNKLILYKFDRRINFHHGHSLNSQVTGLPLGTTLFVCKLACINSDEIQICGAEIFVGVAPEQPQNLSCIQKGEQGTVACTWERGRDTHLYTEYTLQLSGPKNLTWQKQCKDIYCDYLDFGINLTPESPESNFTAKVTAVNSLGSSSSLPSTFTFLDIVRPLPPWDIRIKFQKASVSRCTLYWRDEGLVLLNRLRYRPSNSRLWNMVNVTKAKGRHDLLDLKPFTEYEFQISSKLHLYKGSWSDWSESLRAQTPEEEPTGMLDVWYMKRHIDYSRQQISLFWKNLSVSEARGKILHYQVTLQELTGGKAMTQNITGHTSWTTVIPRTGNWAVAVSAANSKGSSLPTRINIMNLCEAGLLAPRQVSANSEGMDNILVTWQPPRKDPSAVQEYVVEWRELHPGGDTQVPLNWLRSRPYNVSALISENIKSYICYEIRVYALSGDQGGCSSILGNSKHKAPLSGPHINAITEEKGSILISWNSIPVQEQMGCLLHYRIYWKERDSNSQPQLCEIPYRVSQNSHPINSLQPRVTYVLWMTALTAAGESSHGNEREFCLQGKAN

T2: biotinylated recombinant mouse IL-12Rβ2 (mouse, UniProt P97378 24-637, random biotinylated)
T2 construct: Recombinant protein produced in-house, biotinylated; also called mIL-12RB2; mouse IL-12RB2
T2 sequence: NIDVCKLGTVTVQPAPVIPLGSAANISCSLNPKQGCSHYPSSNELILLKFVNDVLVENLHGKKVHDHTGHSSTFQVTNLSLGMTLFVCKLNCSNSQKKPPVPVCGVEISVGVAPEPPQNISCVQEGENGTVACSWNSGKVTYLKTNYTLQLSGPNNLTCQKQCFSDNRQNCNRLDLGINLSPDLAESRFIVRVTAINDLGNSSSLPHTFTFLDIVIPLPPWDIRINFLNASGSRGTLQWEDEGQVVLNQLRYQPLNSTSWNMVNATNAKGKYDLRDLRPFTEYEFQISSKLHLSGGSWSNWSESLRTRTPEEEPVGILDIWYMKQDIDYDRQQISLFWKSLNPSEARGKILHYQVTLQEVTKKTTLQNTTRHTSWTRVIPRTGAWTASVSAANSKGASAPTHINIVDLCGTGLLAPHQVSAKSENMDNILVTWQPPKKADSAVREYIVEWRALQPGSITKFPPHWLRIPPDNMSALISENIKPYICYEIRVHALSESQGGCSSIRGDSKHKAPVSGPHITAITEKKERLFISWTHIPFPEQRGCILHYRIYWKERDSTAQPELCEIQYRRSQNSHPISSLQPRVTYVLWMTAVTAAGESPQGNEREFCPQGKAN

B1: anti-IL-12Rβ2 VHH clone 20497 (VHH, not shown: small tags and cut ends)
VHH: QVQLQESGGGLVQAGDSLRLSCAASGRTFSSYGMGWFRQAPGKEREFVAAISRGARITDYADSVKGRFTISRDNAKNTAYLQMNSLNPEDTAVYFCAAAYTYSGSHYVTARSSDYHSWGQGTQVTVSS
notes: tested as periplasmic extract; also called 2CAM72
B2: anti-IL-12Rβ2 VHH clone 20499 (VHH, not shown: small tags and cut ends)
VHH: B1 VHH with D16G, G54D, R56S, Q82E
notes: tested as periplasmic extract; also called 2CAM75
B3: anti-IL-12Rβ2 VHH clone 20516 (VHH, not shown: small tags and cut ends)
VHH: B1 VHH with D16G, G35S, E46D, G54D, A75V, A79V
notes: tested as periplasmic extract; also called 3CAM85
B4: anti-IL-12Rβ2 VHH clone 20548 (VHH, not shown: small tags and cut ends)
VHH: B1 VHH with D16G, A24D
notes: tested as periplasmic extract; also called 3CAMS50
B5: anti-IL-12Rβ2 VHH clone 20514 (VHH, not shown: small tags and cut ends)
VHH: B1 VHH with A23I, R27P, T28S, G54D, Q82E
notes: tested as periplasmic extract; also called 3CAM70
B6: anti-IL-12Rβ2 VHH clone 20505 (VHH, not shown: small tags and cut ends)
VHH: B1 VHH with L11S, D16G, G54D, Q82E
notes: tested as periplasmic extract; also called 3CAM4
B7: anti-IL-12Rβ2 VHH clone 20539 (VHH, not shown: small tags and cut ends)
VHH: B1 VHH with D16G, I57N, Y80F, S117T
notes: tested as periplasmic extract; also called 2CAMS87
B8: anti-IL-12Rβ2 VHH clone 20540 (VHH, not shown: small tags and cut ends)
VHH: B1 VHH with L20I, E46D, G54D, I57Y, R72K, S113G, H116N, S117Y
notes: tested as periplasmic extract; also called 3CAMS5
B9: anti-IL-12Rβ2 VHH clone 20536 (VHH, not shown: small tags and cut ends)
VHH: B1 VHH with L11M, D16G, I57N, H116P, S117Y
notes: tested as periplasmic extract; also called 2CAMS53
B10: anti-IL-12Rβ2 VHH clone 20504 (VHH, not shown: small tags and cut ends)
VHH: QVQLQESGGGLVQAGGSLKLSCAATGFILDYVGVGWFRQAPGKERDFVAAISRDARITDYADSVKGRFTISRDNAKNTAYLQMNSLNPEDTAVYFCAAAYTYSGSHYVTARSSDYHTWGQGTQVTVSS
notes: tested as periplasmic extract; also called 3CAM3
B11: anti-IL-12Rβ2 VHH clone 20544 (VHH, not shown: small tags and cut ends)
VHH: B1 VHH with D16G, S17P, E46D, G54D, A75V, A79V
notes: tested as periplasmic extract; also called 3CAMS19
B12: anti-IL-12Rβ2 VHH clone 20509 (VHH, not shown: small tags and cut ends)
VHH: B1 VHH with D16G, S25A, E46D, G54D, S117T, V124D
notes: tested as periplasmic extract; also called 3CAM30
B13: anti-IL-12Rβ2 VHH clone 20511 (VHH, not shown: small tags and cut ends)
VHH: B1 VHH with D16E, R19T, A23T, E46D, G54D, I57Y, R72K, S113G, H116N, S117Y
notes: tested as periplasmic extract; also called 3CAM36
B14: anti-IL-12Rβ2 VHH clone 20541 (VHH, not shown: small tags and cut ends)
VHH: B1 VHH with D16G, G54D, Q82E, F95S
notes: tested as periplasmic extract; also called 3CAMS9
B15: anti-IL-12Rβ2 VHH clone 20547 (VHH, not shown: small tags and cut ends)
VHH: B1 VHH with D16G, E46D, I57N, T58A, H116A, S117Y
notes: tested as periplasmic extract; also called 3CAMS47
B16: anti-IL-12Rβ2 VHH clone 20538 (VHH, not shown: small tags and cut ends)
VHH: B1 VHH with A14P, I57N, H116P, S117Y
notes: tested as periplasmic extract; also called 2CAMS83
B17: anti-IL-12Rβ2 VHH clone 20500 (VHH, not shown: small tags and cut ends)
VHH: B1 VHH with A14P, D16G, R27F, G54D, Q82E
notes: tested as periplasmic extract; also called 2CAM81
B18: anti-IL-12Rβ2 VHH clone 20444 (VHH, not shown: small tags and cut ends)
VHH: QVQLQESGGGLVQAGGSLRLSCTASGSIFAIDDMYWYRQAPGKQREFVAYITATNSANYLDSVNGRFTISRDNAKNSVYLQMNSLKPEDTAVYYCNAKQIVGFQIDEYWGQGTQVTVSS
notes: tested as periplasmic extract; also called 2CRM18
B19: anti-IL-12Rβ2 VHH clone 20458 (VHH, not shown: small tags and cut ends)
VHH: B18 VHH with Q44E
notes: tested as periplasmic extract; also called 3CRM45
B20: anti-IL-12Rβ2 VHH clone 20524 (VHH, not shown: small tags and cut ends)
VHH: B18 VHH with S62P
notes: tested as periplasmic extract; also called 3CRMS14
B21: anti-IL-12Rβ2 VHH clone 20518 (VHH, not shown: small tags and cut ends)
VHH: B18 VHH with A14P, K43R
notes: tested as periplasmic extract; also called 2CRMS15
B22: anti-IL-12Rβ2 VHH clone 20446 (VHH, not shown: small tags and cut ends)
VHH: B18 VHH with A14P, I31S
notes: tested as periplasmic extract; also called 2CRM32
B23: anti-IL-12Rβ2 VHH clone 20442 (VHH, not shown: small tags and cut ends)
VHH: B18 VHH with A14P
notes: tested as periplasmic extract; also called 2CRM12
B24: anti-IL-12Rβ2 VHH clone 20517 (VHH, not shown: small tags and cut ends)
VHH: B18 VHH with V12A, A14P
notes: tested as periplasmic extract; also called 2CRMS10
B25: anti-IL-12Rβ2 VHH clone 20456 (VHH, not shown: small tags and cut ends)
VHH: B18 VHH with A14P, R19T
notes: tested as periplasmic extract; also called 3CRM14
B26: anti-IL-12Rβ2 VHH clone 20529 (VHH, not shown: small tags and cut ends)
VHH: B18 VHH with L11S, G16D
notes: tested as periplasmic extract; also called 3CRMS94
B27: anti-IL-12Rβ2 VHH clone 20522 (VHH, not shown: small tags and cut ends)
VHH: B18 VHH with A14P, E107D
notes: tested as periplasmic extract; also called 2CRMS58
B28: anti-IL-12Rβ2 VHH clone 20464 (VHH, not shown: small tags and cut ends)
VHH: B18 VHH with S21F
notes: tested as periplasmic extract; also called 3CRM86
B29: anti-IL-12Rβ2 VHH clone 20454 (VHH, not shown: small tags and cut ends)
VHH: B18 VHH with G16D, K75E, A91V
notes: tested as periplasmic extract; also called 2CRM93
B30: anti-IL-12Rβ2 VHH clone 20519 (VHH, not shown: small tags and cut ends)
VHH: B18 VHH with G16E
notes: tested as periplasmic extract; also called 2CRMS16
B31: anti-IL-12Rβ2 VHH clone 20455 (VHH, not shown: small tags and cut ends)
VHH: B18 VHH with A14P, A97T
notes: tested as periplasmic extract; also called 3CRM6
B32: anti-IL-12Rβ2 VHH clone 20478 (VHH, not shown: small tags and cut ends)
VHH: QVQLQESGGGLVQAGGSLTLSCAASGMPISFNVLGWFRQIPGKERDFVAAISRDARITDYADSVKGRFTISRDNVKNTVYLQMNSLNPEDTAVYFCAAAYTYSGSHYVTARSSDYHSWGQGTQVTVSS
notes: tested as periplasmic extract; also called 2CAM30
B33: anti-IL-12Rβ2 VHH clone 20498 (VHH, not shown: small tags and cut ends)
VHH: QVQLQESGGGLVQAGGSLRLSCASSGRTFSSRTVGWFRQAPGKERYFVAAISRDTAYTDYADSVKGRFTISRGNAKNTVYLQMNSLNPEDTAVYYCAASHIYSGSHYISARSSDYMYWGQGTQVTVSS
notes: tested as periplasmic extract; also called 2CAM73

Molecular target: T1, biotinylated recombinant human IL-12Rβ2
Assay: ELISA, periplasmic extract on biotinylated hIL-12Rβ2, signal over control wells

Binder | ELISA binding hIL-12RB2/control
B1 | 0.932 ratio
B2 | 0.985 ratio
B3 | 1.23 ratio
B4 | 0.951 ratio
B5 | 1.03 ratio
B6 | 1.07 ratio
B7 | 1.03 ratio
B8 | 0.834 ratio
B9 | 0.842 ratio
B10 | 1.27 ratio
B11 | 0.919 ratio
B12 | 1.31 ratio
B13 | 1.2 ratio
B14 | 0.915 ratio
B15 | 1.02 ratio
B16 | 1.07 ratio
B17 | 0.982 ratio

Binder | ELISA binding hIL-12RB2/control
B18 | 0.985 ratio
B19 | 1.47 ratio
B20 | 0.93 ratio
B21 | 1.01 ratio
B22 | 1.01 ratio
B23 | 0.993 ratio
B24 | 0.968 ratio
B25 | 1.24 ratio
B26 | 0.858 ratio
B27 | 1.01 ratio
B28 | 1.29 ratio
B29 | 0.996 ratio
B30 | 0.973 ratio
B31 | 1.4 ratio
B32 | 1.02 ratio
B33 | 0.994 ratio

Molecular target: T2, biotinylated recombinant mouse IL-12Rβ2
Assay: ELISA, periplasmic extract on biotinylated mIL-12Rβ2, signal over control wells

Binder | ELISA binding mIL-12RB2/control
B1 | 13.4 ratio
B2 | 10.4 ratio
B3 | 21.8 ratio
B4 | 8.98 ratio
B5 | 17.8 ratio
B6 | 20.2 ratio
B7 | 4.89 ratio
B8 | 8.57 ratio
B9 | 3.38 ratio
B10 | 14.5 ratio
B11 | 9.31 ratio
B12 | 10 ratio
B13 | 25.6 ratio
B14 | 5.66 ratio
B15 | 5.12 ratio
B16 | 4.78 ratio
B17 | 24 ratio

Binder | ELISA binding mIL-12RB2/control
B18 | 4.68 ratio
B19 | 28.4 ratio
B20 | 9.62 ratio
B21 | 4.43 ratio
B22 | 12 ratio
B23 | 6.67 ratio
B24 | 5.47 ratio
B25 | 12.1 ratio
B26 | 13.2 ratio
B27 | 5.21 ratio
B28 | 5.44 ratio
B29 | 5.04 ratio
B30 | 5.44 ratio
B31 | 11.5 ratio
B32 | 8.78 ratio
B33 | 6.62 ratio
